In publication PMC6804253, “Predicting and Experimentally Validating Hot-Spot Residues at Protein–Protein Interfaces” (ACS Chemical Biology, 2019):
Residue numbers refer to the chain shown, from its start. Like-named read-outs stand apart in the source and are kept apart here.

B1: 1JRH YI49A (protein, UniProt P15260 18-245, looked up, variant Y49A)
extracellular domain: EMGTADLGPSSVPTPTNVTIESYNMNPIVYWEYQIMPQVPVFTVEVKNAGVKNSEWIDACINISHHYCNISDHVGDPSNSLWVRVKARVGQKESAYAKSEEFAVCRDGKIGPPKLDIRKEEKQIMIDIFHPSVFVNGDEQEVDYDPETTCYIRVYNVYVRMNGSEIQYKILTQKEDDCDEIQCQLAIPVSSLNSQYCVSAEGVLHVWGVTTEKSKEVCITIFNSSIKG
modifications: extracellular domain
B2: 1JRH WI82A (protein, UniProt P15260 18-245, looked up, variant W82A)
extracellular domain: B1 extracellular domain with A49Y, W82A
modifications: extracellular domain
B3: 1JRH VI51A (protein, UniProt P15260 18-245, looked up, variant V51A)
extracellular domain: B1 extracellular domain with A49Y, V51A
modifications: extracellular domain
B4: 1JRH GI50A (protein, UniProt P15260 18-245, looked up, variant G50A)
extracellular domain: B1 extracellular domain with A49Y, G50A
modifications: extracellular domain
B5: 1EMV GA49A (protein, UniProt P13479 1-86, looked up, variant G49A)
Colicin-E9 immunity protein: MELKHSISDYTEAEFLQLVTTICNADTSSEEELVKLVTHFEEMTEHPSASDLIYYPKEGDDDSPSGIVNTVKQWRAANGKSGFKQG
B6: 1EMV PA56A (protein, UniProt P13479 1-86, looked up, variant P56A)
Colicin-E9 immunity protein: B5 Colicin-E9 immunity protein with A49G, P56A
B7: 1IAR WA91A (protein, UniProt P05112 25-153, looked up, variant W91A)
Interleukin-4: HKCDITLQEIIKTLNSLTEQKTLCTELTVTDIFAASKNTTEKETFCRAATVLRQFYSHHEKDTRCLGATAQQFHRHKQLIRFLKRLDRNLAGLAGLNSCPVKEANQSTLENFLERLKTIMREKYSKCSS
B8: 1A4Y EA287A (protein, UniProt P13489 2-461, looked up, variant E287A)
Ribonuclease inhibitor: SLDIQSLDIQCEELSDARWAELLPLLQQCQVVRLDDCGLTEARCKDISSALRVNPALAELNLRSNELGDVGVHCVLQGLQTPSCKIQKLSLQNCCLTGAGCGVLSSTLRTLPTLQELHLSDNLLGDAGLQLLCEGLLDPQCRLEKLQLEYCSLSAASCEPLASVLRAKPDFKELTVSNNDINEAGVRVLCQGLKDSPCQLEALKLESCGVTSDNCRDLCGIVASKASLRELALGSNKLGDVGMAELCPGLLHPSSRLRTLWIWECGITAKGCGDLCRVLRAKESLKALSLAGNELGDEGARLLCETLLEPGCQLESLWVKSCSFTAACCSHFSSVLAQNRFLLELQISNNRLEDAGVRELCQGLGQPGSVLRVLWLADCDVSDSSCSSLAATLLANHSLRELDLSNNCLGDAGILQLVESVRQPGCLLEQLVLYDIYWSEEMEDRLQALEKDKPSLRVIS
B9: 1A4Y EA344A (protein, UniProt P13489 2-461, looked up, variant E344A)
Ribonuclease inhibitor: B8 Ribonuclease inhibitor with A287E, E344A
B10: 1A4Y EA401A (protein, UniProt P13489 2-461, looked up, variant E401A)
Ribonuclease inhibitor: B8 Ribonuclease inhibitor with A287E, E401A
B11: 1A4Y SA289A (protein, UniProt P13489 2-461, looked up, variant S289A)
Ribonuclease inhibitor: B8 Ribonuclease inhibitor with A287E, S289A
B12: 1A4Y KA320A (protein, UniProt P13489 2-461, looked up, variant K320A)
Ribonuclease inhibitor: B8 Ribonuclease inhibitor with A287E, K320A
B13: 1AHW TC197A (protein, UniProt P13726 33-295, looked up, variant T197A)
Tissue factor: SGTTNTVAAYNLTWKSTNFKTILEWEPKPVNQVYTVQISTKSGDWKSKCFYTTDTECDLTDEIVKDVKQTYLARVFSYPAGNVESTGSAGEPLYENSPEFTPYLETNLGQPTIQSFEQVGTKVNVTVEDERTLVRRNNTFLSLRDVFGKDLIYTLYYWKSSSSGKKTAKTNTNEFLIDVDKGENYCFSVQAVIPSRAVNRKSTDSPVECMGQEKGEFREIFYIIGAVVFVVIILVIILAISLHKCRKAGVGQSWKENSPLNVS
B14: 1DAN GT43A (protein, UniProt P13726 33-251, looked up, variant G43A)
extracellular domain: SGTTNTVAAYNLTWKSTNFKTILEWEPKPVNQVYTVQISTKSADWKSKCFYTTDTECDLTDEIVKDVKQTYLARVFSYPAGNVESTGSAGEPLYENSPEFTPYLETNLGQPTIQSFEQVGTKVNVTVEDERTLVRRNNTFLSLRDVFGKDLIYTLYYWKSSSSGKKTAKTNTNEFLIDVDKGENYCFSVQAVIPSRTVNRKSTDSPVECMGQEKGEFRE
modifications: extracellular domain
B15: 1DAN PU92A (protein, UniProt P13726 33-251, looked up, variant P92A)
extracellular domain: B14 extracellular domain with A43G, P92A
modifications: extracellular domain
B16: 1DAN NT18A (protein, UniProt P13726 33-251, looked up, variant N18A)
extracellular domain: B14 extracellular domain with N18A, A43G
modifications: extracellular domain
B17: 1AHW NC199A (protein, UniProt P13726 33-251, looked up, variant N199A)
extracellular domain: B14 extracellular domain with A43G, N199A
modifications: extracellular domain
B18: 1DAN ST16A (protein, UniProt P13726 33-251, looked up, variant S16A)
extracellular domain: B14 extracellular domain with S16A, A43G
modifications: extracellular domain
B19: 1DAN TT17A (protein, UniProt P13726 33-251, looked up, variant T17A)
extracellular domain: B14 extracellular domain with T17A, A43G
modifications: extracellular domain
B20: 1AHW TC167A (protein, UniProt P13726 33-251, looked up, variant T167A)
extracellular domain: B14 extracellular domain with A43G, T167A
modifications: extracellular domain

Experiments:
[1] = tested on: PPIs of the SKEMPI data set (by PDBID); experiment: SKEMPI experimental ΔΔG, single mutations to alanine; assay type: binding; details: for sk_class (class of SKEMPI experimental ΔΔG) / sk_class (class of the SKEMPI experimental ΔΔG): class by ΔΔG threshold 4.184 kJ/mol, ref SKEMPI; for sk_class: class of the SKEMPI experimental ΔΔG
[2] = tested on: PPIs of the SKEMPI data set (by PDBID); details: single mutation to alanine, ref SKEMPI, cited from earlier work; for sk_ddG_kJ (SKEMPI experimental ΔΔG, mutation to alanine): r_group DERKH
[3] = PPI given by PDBID, sheet sortedByGroup, r_group FAMILYVW
[4] = complex given by PDBID, mutation by mut_pdb
[5] = PPI given by PDBID, sheet sortedByGroup
[6] = complex given by PDBID, residue group SQNT

Row | Molecule | sk_class [1] | sk_ddG_kJ (SKEMPI experimental ΔΔG) [2, 4] [kJ] | sk_ddG_kJ (SKEMPI experimental ΔΔG) [2, 6] [kJ] | other results
1 | B1 |  |  |  | sk_class (class of SKEMPI experimental ΔΔG) [1]: Positive (positive (a hot residue) ΔΔG ≥ 4.184 kJ/mol); sk_ddG_kJ (SKEMPI experimental ΔΔG) [2, 3]: 15.31 kJ
2 | B2 |  |  |  | sk_class (class of SKEMPI experimental ΔΔG) [1]: Positive (positive (a hot residue) ΔΔG ≥ 4.184 kJ/mol); sk_ddG_kJ (SKEMPI experimental ΔΔG) [2, 3]: 18.12 kJ
3 | B3 |  |  |  | sk_class (class of SKEMPI experimental ΔΔG) [1]: Positive (positive (a hot residue) ΔΔG ≥ 4.184 kJ/mol); sk_ddG_kJ (SKEMPI experimental ΔΔG) [2, 3]: 6.19 kJ
4 | B4 | Positive (positive (a hot residue) ΔΔG ≥ 4.184 kJ/mol) | 18.33 |  | 
5 | B5 | Positive (positive (a hot residue) ΔΔG ≥ 4.184 kJ/mol) | 6.23 |  | 
6 | B6 | Positive (positive (a hot residue) ΔΔG ≥ 4.184 kJ/mol) | 5.19 |  | 
7 | B7 |  |  |  | sk_class (class of SKEMPI experimental ΔΔG) [1]: Neutral (neutral (little effect) 4.184 kJ/mol < ΔΔG > −4.184 kJ/mol); sk_ddG_kJ (SKEMPI experimental ΔΔG) [2, 3]: 3.05 kJ
8 | B8 |  |  |  | sk_class (class of the SKEMPI experimental ΔΔG) [1]: Neutral (neutral (little effect) 4.184 kJ/mol < ΔΔG > −4.184 kJ/mol); sk_ddG_kJ (SKEMPI experimental ΔΔG, mutation to alanine) [2, 5]: 0.38 kJ
9 | B9 |  |  |  | sk_class (class of the SKEMPI experimental ΔΔG) [1]: Neutral (neutral (little effect) 4.184 kJ/mol < ΔΔG > −4.184 kJ/mol); sk_ddG_kJ (SKEMPI experimental ΔΔG, mutation to alanine) [2, 5]: 0.67 kJ
10 | B10 |  |  |  | sk_class (class of the SKEMPI experimental ΔΔG) [1]: Neutral (neutral (little effect) 4.184 kJ/mol < ΔΔG > −4.184 kJ/mol); sk_ddG_kJ (SKEMPI experimental ΔΔG, mutation to alanine) [2, 5]: 3.60 kJ
11 | B11 | Neutral (neutral (little effect) 4.184 kJ/mol < ΔΔG > −4.184 kJ/mol) | 0.13 |  | 
12 | B12 |  |  |  | sk_class (class of the SKEMPI experimental ΔΔG) [1]: Neutral (neutral (little effect) 4.184 kJ/mol < ΔΔG > −4.184 kJ/mol); sk_ddG_kJ (SKEMPI experimental ΔΔG, mutation to alanine) [2, 5]: -1.30 kJ
13 | B13 | Positive (positive (a hot residue) ΔΔG ≥ 4.184 kJ/mol) |  | 5.65 | 
14 | B14 | Neutral (neutral (little effect) 4.184 kJ/mol < ΔΔG > −4.184 kJ/mol) | 0.29 |  | 
15 | B15 | Neutral (neutral (little effect) 4.184 kJ/mol < ΔΔG > −4.184 kJ/mol) | -0.79 |  | 
16 | B16 | Neutral (neutral (little effect) 4.184 kJ/mol < ΔΔG > −4.184 kJ/mol) |  | 0.75 | 
17 | B17 | Positive (positive (a hot residue) ΔΔG ≥ 4.184 kJ/mol) |  | 4.52 | 
18 | B18 | Neutral (neutral (little effect) 4.184 kJ/mol < ΔΔG > −4.184 kJ/mol) |  | -0.54 | 
19 | B19 | Neutral (neutral (little effect) 4.184 kJ/mol < ΔΔG > −4.184 kJ/mol) |  | 0.50 | 
20 | B20 | Neutral (neutral (little effect) 4.184 kJ/mol < ΔΔG > −4.184 kJ/mol) |  | -0.29 | 
